Sequences and labels used below:
T1: EsCas13d, nuclease-dead (Eubacterium siraeum, UniProt B0MS50, R295A;H300A;R849A;H854A)
T1 sequence: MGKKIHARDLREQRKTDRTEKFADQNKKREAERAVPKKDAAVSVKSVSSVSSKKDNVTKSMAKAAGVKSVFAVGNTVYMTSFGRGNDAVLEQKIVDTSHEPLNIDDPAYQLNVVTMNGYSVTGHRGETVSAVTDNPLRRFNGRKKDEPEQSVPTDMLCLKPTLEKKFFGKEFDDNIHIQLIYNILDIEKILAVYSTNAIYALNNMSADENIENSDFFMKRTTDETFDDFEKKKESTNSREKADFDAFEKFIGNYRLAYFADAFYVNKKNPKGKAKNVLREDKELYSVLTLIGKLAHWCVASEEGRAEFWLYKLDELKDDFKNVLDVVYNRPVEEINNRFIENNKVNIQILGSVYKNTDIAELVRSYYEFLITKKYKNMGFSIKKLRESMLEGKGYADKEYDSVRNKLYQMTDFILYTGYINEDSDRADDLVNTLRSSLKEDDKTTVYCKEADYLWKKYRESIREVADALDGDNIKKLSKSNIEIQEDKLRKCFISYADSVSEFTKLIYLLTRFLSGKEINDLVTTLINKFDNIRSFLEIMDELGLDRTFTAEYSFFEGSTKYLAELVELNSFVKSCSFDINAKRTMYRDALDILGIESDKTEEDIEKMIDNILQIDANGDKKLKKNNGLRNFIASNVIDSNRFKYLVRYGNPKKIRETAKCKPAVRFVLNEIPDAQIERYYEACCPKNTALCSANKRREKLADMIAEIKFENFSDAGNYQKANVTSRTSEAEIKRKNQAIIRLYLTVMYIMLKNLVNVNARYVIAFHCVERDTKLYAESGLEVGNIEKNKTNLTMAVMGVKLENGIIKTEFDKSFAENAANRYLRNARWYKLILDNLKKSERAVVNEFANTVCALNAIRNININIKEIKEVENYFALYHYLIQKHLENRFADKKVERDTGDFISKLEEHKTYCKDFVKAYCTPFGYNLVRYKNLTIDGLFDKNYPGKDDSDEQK

B1: target 1 insU 3' of 12,insA 3' of 3 (mixed)
RNA 1: CACCCGUGCAAAAAUGCAGGGGUCUAAAACUGAGCGGAUAACCUCUCUAUGG
RNA 2: GGGAAUGGAUCCACAUCUACGAAUUCGUACCAUAGAGAGGUUUAUCCGCUACACCGAGAUCGGAAGAGCACACGU
B2: target 1 C6G (mixed)
RNA 1: CACCCGUGCAAAAAUGCAGGGGUCUAAAACUGAGCGGAUAACCUCUCUAUGG
RNA 2: GGGAAUGGAUCCACAUCUACGAAUUCGUACCAUAGAGAGGUUAUCGGCUCACCGAGAUCGGAAGAGCACACGU
B3: target 1 insC 3' of 15,insC 3' of 10 (mixed)
RNA 1: CACCCGUGCAAAAAUGCAGGGGUCUAAAACUGAGCGGAUAACCUCUCUAUGG
RNA 2: GGGAAUGGAUCCACAUCUACGAAUUCGUACCAUAGAGCAGGUUCAUCCGCUCACCGAGAUCGGAAGAGCACACGU
B4: target 1 del1,del7 (mixed)
RNA 1: CACCCGUGCAAAAAUGCAGGGGUCUAAAACUGAGCGGAUAACCUCUCUAUGG
RNA 2: GGGAAUGGAUCCACAUCUACGAAUUCGUACCAUAGAGAGGUUAUCGCUCCCGAGAUCGGAAGAGCACACGU
B5: target 1 U3G,U19G (mixed)
RNA 1: CACCCGUGCAAAAAUGCAGGGGUCUAAAACUGAGCGGAUAACCUCUCUAUGG
RNA 2: GGGAAUGGAUCCACAUCUACGAAUUCGUACCAGAGAGAGGUUAUCCGCGCACCGAGAUCGGAAGAGCACACGU
B6: target 1 U3G,C4A (mixed)
RNA 1: CACCCGUGCAAAAAUGCAGGGGUCUAAAACUGAGCGGAUAACCUCUCUAUGG
RNA 2: GGGAAUGGAUCCACAUCUACGAAUUCGUACCAUAGAGAGGUUAUCCGAGCACCGAGAUCGGAAGAGCACACGU
B7: target 1 U10G,A20C (mixed)
RNA 1: CACCCGUGCAAAAAUGCAGGGGUCUAAAACUGAGCGGAUAACCUCUCUAUGG
RNA 2: GGGAAUGGAUCCACAUCUACGAAUUCGUACCCUAGAGAGGUGAUCCGCUCACCGAGAUCGGAAGAGCACACGU
B8: target 1 del2,del7 (mixed)
RNA 1: CACCCGUGCAAAAAUGCAGGGGUCUAAAACUGAGCGGAUAACCUCUCUAUGG
RNA 2: GGGAAUGGAUCCACAUCUACGAAUUCGUACCAUAGAGAGGUUAUCGCUACCGAGAUCGGAAGAGCACACGU
B9: target 1 A1U,C4G (mixed)
RNA 1: CACCCGUGCAAAAAUGCAGGGGUCUAAAACUGAGCGGAUAACCUCUCUAUGG
RNA 2: GGGAAUGGAUCCACAUCUACGAAUUCGUACCAUAGAGAGGUUAUCCGGUCUCCGAGAUCGGAAGAGCACACGU
B10: target 1 complement block 5-9 (mixed)
RNA 1: CACCCGUGCAAAAAUGCAGGGGUCUAAAACUGAGCGGAUAACCUCUCUAUGG
RNA 2: GGGAAUGGAUCCACAUCUACGAAUUCGUACCAUAGAGAGGUUUAGGCCUCACCGAGAUCGGAAGAGCACACGU
B11: target 1 U8C,C22U (mixed)
RNA 1: CACCCGUGCAAAAAUGCAGGGGUCUAAAACUGAGCGGAUAACCUCUCUAUGG
RNA 2: GGGAAUGGAUCCACAUCUACGAAUUCGUAUCAUAGAGAGGUUACCCGCUCACCGAGAUCGGAAGAGCACACGU
B12: target 1 del8 (mixed)
RNA 1: CACCCGUGCAAAAAUGCAGGGGUCUAAAACUGAGCGGAUAACCUCUCUAUGG
RNA 2: GGGAAUGGAUCCACAUCUACGAAUUCGUACCAUAGAGAGGUUACCGCUCACCGAGAUCGGAAGAGCACACGU
B13: target 1 C4G (mixed)
RNA 1: CACCCGUGCAAAAAUGCAGGGGUCUAAAACUGAGCGGAUAACCUCUCUAUGG
RNA 2: GGGAAUGGAUCCACAUCUACGAAUUCGUACCAUAGAGAGGUUAUCCGGUCACCGAGAUCGGAAGAGCACACGU

This data set addresses T1, EsCas13d, nuclease-dead. As to the kind of experiment: crRNA (strand 1, pre-loaded); Mg2+; 40 mM Tris-HCl pH 7.5, 150 mM NaCl, 6 mM MgCl2, 1 mM DTT, 0.1% Tween-20, 0.2 mg/ml BSA; 25 C; 10 min per concentration, then washed. The conditions noted are these: tags: His6-TwinStrep-SUMO cleaved; N-terminal SNAP kept (SNAP-Surface 488); label: 3' end held by stalled T7 RNA polymerase.
With B1, the equilibrium dissociation constant (Kd) (as a rule, the constant that tells how readily two partners part at equilibrium) turned out to be 5.8 ± 0.4 nM.
Regarding B2, binding was put at a Kd of 8.37 ± 0.31 nM.
For B3, binding was characterised by a dissociation constant (Kd) of 17.3 ± 1.1 nM. This Kd lies about 2.1-fold higher than the previous one.
Take B4: the affinity, expressed as Kd, was 9.7 ± 0.6 nM.
In the case of B5 it was 35.9 ± 2.7 nM; in that of B6, 4.19 ± 0.3 nM.
In the case of B7, the Kd was found to be 76 ± 29 nM.
In the case of B8, binding was characterised by a dissociation constant (Kd) of 6.62 ± 0.24 nM.
In turn, B9 displayed a Kd of 6.11 ± 0.25 nM.
B10 registered a Kd of 17.2 ± 0.7 nM.
In turn, B11 returned a Kd of 28 ± 4 nM.
In turn, B12 gave an equilibrium dissociation constant (Kd) of 10.5 ± 0.6 nM.
Molecule B13 displayed a dissociation constant Kd of 5.3 ± 0.8 nM. This Kd lies about 2-fold lower than the previous one.

Values taken from PMC10786891, “Massively parallel profiling of RNA-targeting CRISPR-Cas13d”.
